In the RNAGym collection of RNA variant scans (doi:10.7554/elife.80360):

B1: HDV Ribozyme (parent)
chain: GGCCGGCAUGGUCCCAGCCUCCUCGCUGGCGCCGGCUGGGCAACAUUCCGAGGGGACCGUCCCCUCGGUAAUGGCGAAUGGGACCCA

Variants of: B1
Test: self-cleavage, relative activity (ratio to wild type); higher = more cleavage; co-transcriptional

Row | Variant | self-cleavage
1 | GGCCGGCAUGGUCCCAGCCUCCUCGCUGGCGCCGGCUGGGCAACAUUCCGAGGGGACCGUCCCCUCGGUAUUGGCGAGUGGGACCCA [A71U A78G] | 0.59
2 | GGCCGGCAUGGUCCGAGCCUCCUCGCUGGCGCCGGCUGGGCAACAUUCCGAGGGGACCGUCCCCUCGGUAAUGGCGACUGGGACCCA [C15G A78C] | 0
3 | GGCCGGCAUGGUCCCACCCUCCCCGCUGGCGCCGGCUGGGCAACAUUCCGAGGGGACCGUCCCCUCGGUAAUGGCGAAUGGGACCCA [G17C U23C] | 0.208
4 | GGCCGGCAUGGUCCCAGCCUCCUCGCUGGCGCCGACUGGGCAACAUUCCGGGGGGACCGUCCCCUCGGUAAUGGCGAAUGGGACCCA [G35A A51G] | 0.673
5 | GGCCGGCAUGGUCCCAGCCUCCUCGCUGGCGCCGGCUGGGCAACAUUCCAAGGGGACCGUCCCCUCGGUAAUGGCGAAUGGGAGCCA [G50A C84G] | 0.853
6 | GGCCGUCAUGGUCCCAGCCUCCUCGCUCGCGCCGGCUGGGCAACAUUCCGAGGGGACCGUCCCCUCGGUAAUGGCGAAUGGGACCCA [G6U G28C] | 0.0739
7 | GGCCGGCAUGGUCCCAGCCUCCUCGCUGGCGCCGGCUUGGCAACAUUCUGAGGGGACCGUCCCCUCGGUAAUGGCGAAUGGGACCCA [G38U C49U] | 0.172
8 | GGCCGGCAUGGUCCCAGCCUCCUCGCUGGCGCCAGCUGGGCAACAUUCCGAGGGGACCGUGCCCUCGGUAAUGGCGAAUGGGACCCA [G34A C61G] | 0.104
9 | GGCCGGCAUGGUCCCAGCCUCCUCGCUGGCGCCGGCUGGGCAACAUUCCGAGGGGACCAUCCCCUCGGUAAUGGCGAAUGGGAUCCA [G59A C84U] | 0.73
10 | GGCCGGCAUGGUCCCAGCCUCCUCGCUGGCGACGGCUGGGCAACAUUCCGAGGGGACCGUCUCCUCGGUAAUGGCGAAUGGGACCCA [C32A C62U] | 0.341
11 | GGCCGGCAUGGUCCCAGCCUCCUCGCUGGCGCCGGCUGGGAAACAUUCCGAGGGGACCCUCCCCUCGGUAAUGGCGAAUGGGACCCA [C41A G59C] | 0.911
12 | GGCCGGCCUGGUCCCAGCCUCCUCGCUGGCGCCGGCUGGGCCACAUUCCGAGGGGACCGUCCCCUCGGUAAUGGCGAAUGGGACCCA [A8C A42C] | 0.201
13 | GCCCGGCAUGGUCCCAGCCUCCUCGCUGGCGCCGGCUGGGCAACAUUCCGAGGGGACCGUCCCCUCGGUAACGGCGAAUGGGACCCA [G2C U72C] | 0.142
14 | GGCCGGCAUGGACCCAGCCUCCUCGCUGGCGCCGGCUGGGCAACAUUCCGAGGGGACCGUCGCCUCGGUAAUGGCGAAUGGGACCCA [U12A C62G] | 0.133
15 | GGCCGGCAUGGUCCCAGCCUCCUCGCUGGCGCCGGCUGGGCAACAUUCCGAGGGGACCGUCCCCUGGGUAAUGGCGAAUGGGACCUA [C66G C86U] | 0.931
16 | GGCCGGCAUGGUCCCAGCCUCCUCGCUGGCGCCGGCUGGGCAACAUUCCGAGAGGACCGUCCCCUCGGUAAUGGCGAAUGGAACCCA [G53A G82A] | 0.466
17 | GGCCGGCAUGGUCCCAGCCUCCUCGCUGGCGCCGGGUGGGCAACAUUCCGAGGGGACCGUCCCCUAGGUAAUGGCGAAUGGGACCCA [C36G C66A] | 0.162
18 | GACCGGCAUGGUCCCAGCCUCCUCGCUGGCGCCAGCUGGGCAACAUUCCGAGGGGACCGUCCCCUCGGUAAUGGCGAAUGGGACCCA [G2A G34A] | 0.0536
19 | GGCCGGCAUGGUCCCAGCCUCCUCGCUGGCACCGGCUGGGCAACAUUCCGAGGGGACCGUCCCCUGGGUAAUGGCGAAUGGGACCCA [G31A C66G] | 0.379
20 | GGCCGGCAUGGUCCCAGCCUCCUCGCUGGCGCCGGCGGGGCAACAUUCCGAGGUGACCGUCCCCUCGGUAAUGGCGAAUGGGACCCA [U37G G54U] | 0.135
21 | GGCCGGCCUGGUCCCAGCCUCCCCGCUGGCGCCGGCUGGGCAACAUUCCGAGGGGACCGUCCCCUCGGUAAUGGCGAAUGGGACCCA [A8C U23C] | 0.506
22 | GGCCGGCAUGGUCCCAGCCUCCUCGCUAGCGCCGGCUGGGCAACAUUCCGAGGGGACCGUCCCCUCGCUAAUGGCGAAUGGGACCCA [G28A G68C] | 0.0692

Row | Variant | self-cleavage
23 | GGCCGGCAUGGUCCCAGCCUCCUCGCUGGCGCCGGCUGGGCAACAUUCCGAGGGGACCGUCCCCUCGGCAAUGGCGAAUGGGACUCA [U69C C85U] | 1.15
24 | GGCCGGCAUUGUCCCAGCAUCCUCGCUGGCGCCGGCUGGGCAACAUUCCGAGGGGACCGUCCCCUCGGUAAUGGCGAAUGGGACCCA [G10U C19A] | 0.0946
25 | GGCCGGCAUGGUCCCAGCCUCCUCGCUGGCGGCGGCUGGGCAACAUUCCGAGGGGACCGUCCCCUCGGUAAUGGCGAAUGGGACCCA [C32G] | 0.103
26 | GGCCGGCAUGGUCCCAGCCUCCUCGCUGGCGCCGGCUGGGCAACAUUCCGAGGGGUCCGUCCCCUUGGUAAUGGCGAAUGGGACCCA [A56U C66U] | 0.923
27 | GGCCGGCAUGGUCCCAGCCUCCUCGCUGGCGCCUGCUAGGCAACAUUCCGAGGGGACCGUCCCCUCGGUAAUGGCGAAUGGGACCCA [G34U G38A] | 0.0702
28 | GGCCGGCAUGGUCCCAGCCUCCUCGCUGGCGCCGGCUGGGCAACAUGCCGAGGGGACGGUCCCCUCGGUAAUGGCGAAUGGGACCCA [U47G C58G] | 0.831
29 | GGCCGGCAUGGUCCCAGCCUCCUCGCUGGCGGCGGCUGGGCAACAUUCCGAGGGGACCGUCCCCUCGGUAAUGGGGAAUGGGACCCA [C32G C75G] | 0
30 | GGCCGGCAUGGUCCCAGCCUCCUCGCUGGCGCCGGCUGGGCAACAUUCCGAGGGGACCAUCCCCUCGGUAAGGGCGAAUGGGACCCA [G59A U72G] | 0.637
31 | GGCCGGCAUGGUCCCAGCCCCCUCGCUGGCGCCGGCUGGGCAACAUUCCGAGGGGACCGUCCCCUCGGUACUGGCGAAUGGGACCCA [U20C A71C] | 0.0692
32 | GGCCGGCAUGGUCCCAGCCUCCUCGCUGGCGCCGGCUGGGCAACAUUCCGAGGGGACCGUCCCCUCGGUAAAGGCGAAUUGGACCCA [U72A G80U] | 0.251
33 | CGCCGGCAUGGUCCCAGCCUCCUCGCUGGCGCCGGCUGGGCAACAUUCCGAGGGGACCGGCCCCUCGGUAAUGGCGAAUGGGACCCA [G1C U60G] | 0.0594
34 | GGCCGGCUUGGUCCCAGCCUCCUCGCUGGCGCCGGCUGGGCAACAUUCCGAGGGGACCGUCCCCUCAGUAAUGGCGAAUGGGACCCA [A8U G67A] | 0.855
35 | GGCCGGCAUGGUCCCAGCCUCCUCGCUGGCGCCGGCUGGGCAACAUUCCGAGGGGACCGUCCGCUCGGUAAUGGCGAAUGGGUCCCA [C63G A83U] | 0.271
36 | GGCCUGCAUGGUCCCAGCCUCCUCGCUGGCGCCGGCUGAGCAACAUUCCGAGGGGACCGUCCCCUCGGUAAUGGCGAAUGGGACCCA [G5U G39A] | 0.217
37 | GGCCGGCAUGGUCCCAGCCUCCUCGCUGGCGCCGGCUGGGCAACAUUCCGAGGGGUCCGUACCCUCGGUAAUGGCGAAUGGGACCCA [A56U C61A] | 0.943
38 | GGCCGGCAUGGUCCCAGCCCCCUCGCUGGCGCCGGCUGGGCAACAUUCCGAGGGGACGGUCCCCUCGGUAAUGGCGAAUGGGACCCA [U20C C58G] | 0.0923
39 | GGCCAGCAUGGUCCCAGCCUCCUCGCUGGCGCCGGCUGGGCAACAUUCCGAGGGGACCGUCCCCUCGGUAAUGGCGAAUAGGACCCA [G5A G80A] | 0.143
40 | GGCCGGCACGGUCCCAGCCUCCUCGCUGGCGCCGGCUGGGCAACAUUCCGAGGGGACCGUCCCCUCGGUAAUGGCGACUGGGACCCA [U9C A78C] | 0.128
41 | GGCCGGCCUGGUCCCAGCCUCCUCGCUGGCGCCGGCAGGGCAACAUUCCGAGGGGACCGUCCCCUCGGUAAUGGCGAAUGGGACCCA [A8C U37A] | 0.128
42 | GGCCGGCAUGGUCCCAGCCUCCUCGCUGGCGCCGGCUGGGCAACAUUCCGAGGGGACCGUCCCCUCGGUAUUGGCGAAUUGGACCCA [A71U G80U] | 0.21
43 | GGCCGGCAUGGUCCCAGCCUCCUCGCUGGCGCCGGCUGGGCAACAUUCCGAGAGGACCGUCACCUCGGUAAUGGCGAAUGGGACCCA [G53A C62A] | 1.05
44 | GGCCGGCAUGGUCCCACCCCCCUCGCUGGCGCCGGCUGGGCAACAUUCCGAGGGGACCGUCCCCUCGGUAAUGGCGAAUGGGACCCA [G17C U20C] | 0

Row | Variant | self-cleavage
45 | GGCCGGCAUGGUCCCAGCCUCCUCGCUGGCGCCGGAUGGGCAACAUUCCGAGGGGACCGUCCCCUCGCUAAUGGCGAAUGGGACCCA [C36A G68C] | 0.235
46 | GGCCGGCAUGGUCCCAGCCUCCUCGCUGGCGCCGGCUCGGCAACAUUCCGAGGGGACCGUCCCCUCGGUGAUGGCGAAUGGGACCCA [G38C A70G] | 0.0978
47 | GGCCGGCAUGGUCCCAGCCUCCUCGCUGCCGCCGGCUGGGCAACAUUCCGAGGGGACCGUCCCCUCGGUAAUGGCGAAUGGGACACA [G29C C85A] | 0.104
48 | AGCCGGCAUGGUCCCAGCCUCCUCGCUGGCGCCGGCUGGGCAACAUUCCGAGGGGACCGUCCGCUCGGUAAUGGCGAAUGGGACCCA [G1A C63G] | 0.249
49 | GGCCGGCAUGGUCCCAGCCUCCUCGCUGGCGCCGGCUGGGCAAGAUUCCGAGGGGACCGUUCCCUCGGUAAUGGCGAAUGGGACCCA [C44G C61U] | 0.378
50 | GGCCGGCAUGGUCCCAGCCUCCUCGCUGGCGCCGGCUGGGCAACAUUCCGAGGGGACCUUCCCCUCGGUAAUGGCGAAUCGGACCCA [G59U G80C] | 0.141
51 | GGCCGGCUUGGUCCCAGCCUCCUCGCUGGCGCCGGCUGGGCAACAUUCCGAGGGGACCGUCCCCUCGGUAAUGGCGAAUGGGACCGA [A8U C86G] | 0.554
52 | GGCCAGCAUGGUCCCAGCCUCCUCGCUGGCGCCGGCUGGGCAACAUUCCGAGGGGACCGUCCCCUAGGUAAUGGCGAAUGGGACCCA [G5A C66A] | 0.173
53 | GGCCGGCAUGGUCCCAGCCUCCUCGCUGGCGCUGGCUGGGCAACAUUCCGAGGGGACCGUCCCCUCGGUAAUGGCGACUGGGACCCA [C33U A78C] | 0.0831
54 | GGCCGGCAUGGUCCGAGCCUCCACGCUGGCGCCGGCUGGGCAACAUUCCGAGGGGACCGUCCCCUCGGUAAUGGCGAAUGGGACCCA [C15G U23A] | 0.68
55 | GGCCGGCAUGGUCCCAGCCUCCUCGCUGGCGCCGGCUGGGCAACAUUCCGAGAGGACCAUCCCCUCGGUAAUGGCGAAUGGGACCCA [G53A G59A] | 0.851
56 | GGCCGGCAUGGUCCCAGCCUCCUCGCUGGUGCCGGCUGGGCAACAUUCCGAGGGGACCGUCCCCUCGGUAAUGGCGAAUGGGACCUA [C30U C86U] | 0.795
57 | GGCCGGUAUGGUCCCAGCCUCCUCGCUGGCGCCCGCUGGGCAACAUUCCGAGGGGACCGUCCCCUCGGUAAUGGCGAAUGGGACCCA [C7U G34C] | 0.193
58 | GGCCGGCAUGGUCCCAGCCUCCUCGCUGGCGCCGGCUGGGAAACAUUCCGAGGGGACCGUCCCCUCGGUAAUGGCGAAUGAGACCCA [C41A G81A] | 0.242
59 | GGCCUGCAUGGUCCCAGCCUCCUCGCUGGCGCCGGCUGGGCAACAUUCCGAGGGGACCGUCCCCUCGGUAAUGGCGAAUGGGACCGA [G5U C86G] | 0.26
60 | GGCCGGCAUGGUCCCAGCCUCCUCGCUGGCGCCGGCUGGGCAACAUUCCCCGGGGACCGUCCCCUCGGUAAUGGCGAAUGGGACCCA [G50C A51C] | 0.814
61 | GGCCGGCAUGGUCCCAGCCUCCUCGCUGGCGCCGGCUGGGCAACAUUCCGAGGGGACUGUCCCCGCGGUAAUGGCGAAUGGGACCCA [C58U U65G] | 0.964
62 | GGCCGGCAUGGUCCCAGCCUCCUCGCUGGCGCCGGCUGGGCAACGUUCCGAGGGGAACGUCCCCUCGGUAAUGGCGAAUGGGACCCA [A45G C57A] | 0.979
63 | GGCCGGCAUGGUCCCAGCCUCCUCGCUGGCGCCGGCUGGGCAACAUUCCGCGGGGACCGUCCCCUAGGUAAUGGCGAAUGGGACCCA [A51C C66A] | 1.09
64 | GGCCGGCAUGGUCCCAGCCUCCUCGCUGGCGCCGGCUGGGCAACAUUCCGAGGGGACCGUCCCCUCGGUAAUGGCGGAUGGGACCCA [A77G] | 0.887
